Measured values taken from paper PMC2172828 (The Journal of Cell Biology, 2003).

Target: T1, GST–Cdc15p(1–405) (S. pombe, UniProt Q09822 1-405)
T1 sequence (looked up): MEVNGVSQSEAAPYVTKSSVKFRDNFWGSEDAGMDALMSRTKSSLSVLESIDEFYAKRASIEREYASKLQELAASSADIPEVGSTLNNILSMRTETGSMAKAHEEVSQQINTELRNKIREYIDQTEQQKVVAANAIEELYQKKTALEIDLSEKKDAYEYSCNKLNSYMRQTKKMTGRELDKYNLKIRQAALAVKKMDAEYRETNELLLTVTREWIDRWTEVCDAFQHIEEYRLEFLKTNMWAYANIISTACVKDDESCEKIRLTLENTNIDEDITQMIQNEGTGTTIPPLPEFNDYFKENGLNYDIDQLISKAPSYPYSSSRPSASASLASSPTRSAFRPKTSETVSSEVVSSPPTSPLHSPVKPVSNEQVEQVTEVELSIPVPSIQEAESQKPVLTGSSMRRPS
Assay: pull-down

binding result: binds
B1: MBP–Myo1p(727–1041) (domain or fragment, S. pombe, UniProt Q9Y7Z8 727-1041, looked up)
chain: ATRIQRAWRSYVRRRSEAAACIQKLWNRNKVNMELERVRNEGTKLLQGKKQRRRYSILGSRKFYGDYLSASKPNGTLWNTCGLSQNDHVIFSMRCEVLVHKLGRTSKPSPRQLVLTKKNLYLVITKIVDQKLTQQVEKKFAVSSIDSVGLTNLQDDWVAIRNKSSQNGDMFLRCFFKTEFITTLKRINRNIQVIVGPTIQYCRKPGKVQTVKTAKDETTKDYDYYKSGTIHVGTGLPPTSKSKPFPRLATGGSTAAARGPRPVVQNKPAATKPVSMPAAKSKPAPMANPVSTAQQTQNRPPAPAMQARPNTTQAA
